Data reported in article PMC6667215, “Cell-sized confinement controls generation and stability of a protein wave for spatiotemporal regulation in cells” (eLife, 2019).

Molecular target: T1, sfGFP-MinD^D40AΔ10 (E. coli MG1655, UniProt P0AEZ3 1-260, D40A)
T1 construct: MinD of E. coli MG1655 with the D40A mutation and deletion of the C-terminal 10 amino acids, made from pET15-sfGFP-minD; 55 kDa after removal of the 2 kDa His-Tag (so in the source); also called MinD mutant treated by thrombin; His-sfGFP-MinD^D40AΔ10 (before cleavage); not shown: His tag, N-terminal, cleaved; sfGFP, N-terminal, kept
T1 sequence (looked up): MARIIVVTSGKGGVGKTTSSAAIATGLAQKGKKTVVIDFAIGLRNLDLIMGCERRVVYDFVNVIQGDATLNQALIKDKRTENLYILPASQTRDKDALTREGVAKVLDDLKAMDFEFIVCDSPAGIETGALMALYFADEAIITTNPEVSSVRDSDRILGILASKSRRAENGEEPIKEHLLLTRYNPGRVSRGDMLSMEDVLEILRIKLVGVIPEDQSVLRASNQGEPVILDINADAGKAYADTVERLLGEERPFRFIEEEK
Assay: pull-down; His-tagged Min protein held on cOmplete His-Tag purification (Ni-NTA) resin; 9 µM MinE-mCherry-His, 3 µM His-sfGFP-MinD or 6 µM thrombin-treated MinD^D40AΔ10, with or without 3 µM BSA; RE buffer, 30 min, room temperature; washed with 20 mM imidazole, eluted with 250 mM imidazole; SDS-PAGE and CBB staining
Details: both partners purified

B1: MinE-mCherry-His (natural protein, E. coli K12 MG1655, UniProt P0A734 1-88, looked up)
chain: MALLDFFLSRKKNTANIAKERLQIIVAERRRSDAEPHYLPQLRKDILEVICKYVQIDPEMVTVQLEQKDGDISILELNVTLPEAEELK
notes: MinE, gene amplified from the E. coli K12 MG1655 genome and cloned into pET29a with mCherry (pET29-minE-mCherry-His); The 6xHis-tag was attached at the C-terminal of mCherry by PCR; the mCherry gene came from the pET21b-RL027A plasmid (Addgene); source: E. coli BL21-CodonPlus(DE3) RIPL, purified (His-Tag purification resin, HiTrap Q HP); not shown: mCherry, C-terminal, kept; 6xHis, C-terminal, …
Q: Does B1 bind?
A: binds
